Measurements as given in patent US20150258180A1 (UNIVERSITY OF MANITOBA, published 2015).

Experiments:
[1] = molecular target: T1, human GM2 activator protein (GM2AP), recombinant, P17900
T1 chain: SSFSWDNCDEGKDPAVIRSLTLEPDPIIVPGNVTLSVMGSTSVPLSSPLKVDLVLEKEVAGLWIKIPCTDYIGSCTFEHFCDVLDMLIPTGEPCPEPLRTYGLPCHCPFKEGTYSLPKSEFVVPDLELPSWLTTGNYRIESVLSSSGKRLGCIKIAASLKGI

[2] = molecular target: plasma membrane mannose-6-phosphate receptor of human Tay-Sachs fibroblasts (human, UniProt P11717 41-2491); experiment: cell-based or functional assay
plasma membrane mannose-6-phosphate receptor of human Tay-Sachs fibroblasts, sequence (P11717 41-2491): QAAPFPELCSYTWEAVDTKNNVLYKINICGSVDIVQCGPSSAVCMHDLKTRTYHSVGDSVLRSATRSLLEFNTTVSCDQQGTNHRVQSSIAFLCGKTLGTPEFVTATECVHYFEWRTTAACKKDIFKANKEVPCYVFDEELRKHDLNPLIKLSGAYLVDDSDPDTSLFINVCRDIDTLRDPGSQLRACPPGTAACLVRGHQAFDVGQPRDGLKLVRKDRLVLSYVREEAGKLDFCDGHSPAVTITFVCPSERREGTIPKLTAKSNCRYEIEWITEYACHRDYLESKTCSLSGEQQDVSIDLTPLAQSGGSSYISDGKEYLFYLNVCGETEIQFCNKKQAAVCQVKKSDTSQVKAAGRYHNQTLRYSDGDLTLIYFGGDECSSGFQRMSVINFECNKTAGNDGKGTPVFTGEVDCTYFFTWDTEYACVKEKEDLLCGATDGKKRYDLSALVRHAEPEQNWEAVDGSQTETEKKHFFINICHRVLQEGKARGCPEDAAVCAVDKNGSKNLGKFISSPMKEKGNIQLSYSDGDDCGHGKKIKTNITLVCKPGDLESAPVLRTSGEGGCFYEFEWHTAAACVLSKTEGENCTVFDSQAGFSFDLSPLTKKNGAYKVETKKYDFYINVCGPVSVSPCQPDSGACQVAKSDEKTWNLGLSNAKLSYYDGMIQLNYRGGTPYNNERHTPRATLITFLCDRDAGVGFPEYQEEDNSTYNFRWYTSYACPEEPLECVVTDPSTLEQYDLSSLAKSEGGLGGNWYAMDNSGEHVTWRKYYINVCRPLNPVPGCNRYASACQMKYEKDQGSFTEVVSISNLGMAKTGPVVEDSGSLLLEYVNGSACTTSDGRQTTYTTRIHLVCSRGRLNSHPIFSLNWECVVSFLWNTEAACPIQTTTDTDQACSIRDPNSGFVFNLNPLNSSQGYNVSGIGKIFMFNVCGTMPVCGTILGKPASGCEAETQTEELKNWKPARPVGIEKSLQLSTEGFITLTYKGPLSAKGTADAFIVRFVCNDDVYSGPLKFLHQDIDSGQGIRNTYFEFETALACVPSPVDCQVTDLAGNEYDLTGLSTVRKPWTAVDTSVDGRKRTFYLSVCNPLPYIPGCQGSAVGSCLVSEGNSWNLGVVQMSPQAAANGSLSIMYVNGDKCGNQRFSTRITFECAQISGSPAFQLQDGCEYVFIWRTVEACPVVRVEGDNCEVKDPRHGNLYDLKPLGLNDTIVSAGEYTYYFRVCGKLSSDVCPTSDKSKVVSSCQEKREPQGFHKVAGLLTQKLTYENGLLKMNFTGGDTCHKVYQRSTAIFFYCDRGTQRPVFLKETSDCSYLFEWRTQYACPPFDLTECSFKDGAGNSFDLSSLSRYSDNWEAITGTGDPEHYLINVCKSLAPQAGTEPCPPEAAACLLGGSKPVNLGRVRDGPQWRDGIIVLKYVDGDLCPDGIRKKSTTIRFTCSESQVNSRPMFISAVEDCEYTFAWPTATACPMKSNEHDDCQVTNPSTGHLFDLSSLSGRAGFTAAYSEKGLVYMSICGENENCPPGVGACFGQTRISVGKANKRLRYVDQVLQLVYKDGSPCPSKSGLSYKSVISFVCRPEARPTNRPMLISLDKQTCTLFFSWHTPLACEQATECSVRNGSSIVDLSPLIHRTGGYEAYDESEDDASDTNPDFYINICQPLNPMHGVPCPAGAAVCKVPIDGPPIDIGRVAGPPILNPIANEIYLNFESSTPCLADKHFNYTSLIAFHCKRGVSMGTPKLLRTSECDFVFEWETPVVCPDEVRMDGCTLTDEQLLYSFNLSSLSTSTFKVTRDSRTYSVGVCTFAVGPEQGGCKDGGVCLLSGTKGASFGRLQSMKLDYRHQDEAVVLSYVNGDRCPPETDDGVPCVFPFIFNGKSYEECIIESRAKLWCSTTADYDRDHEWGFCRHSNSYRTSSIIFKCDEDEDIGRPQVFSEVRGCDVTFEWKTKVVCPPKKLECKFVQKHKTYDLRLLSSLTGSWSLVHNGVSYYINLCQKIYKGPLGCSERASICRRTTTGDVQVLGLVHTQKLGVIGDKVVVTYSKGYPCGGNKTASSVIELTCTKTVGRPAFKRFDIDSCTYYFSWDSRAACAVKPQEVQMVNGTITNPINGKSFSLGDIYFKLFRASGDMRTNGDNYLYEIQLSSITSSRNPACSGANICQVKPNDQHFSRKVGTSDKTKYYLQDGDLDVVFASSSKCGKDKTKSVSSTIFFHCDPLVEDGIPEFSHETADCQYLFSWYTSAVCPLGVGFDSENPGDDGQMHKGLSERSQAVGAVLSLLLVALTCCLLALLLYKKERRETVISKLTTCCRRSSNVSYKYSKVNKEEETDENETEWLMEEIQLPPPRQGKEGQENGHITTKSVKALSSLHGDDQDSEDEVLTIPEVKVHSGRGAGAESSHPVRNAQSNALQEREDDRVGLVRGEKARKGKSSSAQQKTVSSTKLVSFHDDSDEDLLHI

B1: mature variant α-subunit homodimer (500 mM NaCl DEAE fraction) (protein)
chain: LWPWPQNFQTSDQRYVLYPNNFQFQYDVSSAAQPGCSVLDEAFQRYRDLLFGSGSWPRPYLTGKRHTLEKNVLVVSVVTPGCNQLPTLESVENYTLTINDDQCLLLSETVWGALRGLETFSQLVWKSAEGTFFINKTEIEDFPRFPHRGLLLDTSRHYLPLKSILDTLDVMAYNKLNVFHWHLVDDQSFPYESFTFPELMRKGSYSLSHIYTAQDVKEVIEYARLRGIRVLAEFDTPGHTLSWGPGIPGLLTPCYSGSEPSGTFGPVNPSLNNTYEFMSTFFLEVSSVFPDFYLHLGGDEVDFTCWKSNPEIQDFMRKKGFGEDFKQLESFYIQTLLDIVSSYGKGYVVWQEVFDNKVKIQPDTIIQVWREDIPVNYMKELELVTKAGFRALLSAPWYLNRISYGQDWRKFYKVEPLAFEGTPEQKALVIGGEACMWGEYVDATNLVPRLWPRAGAVAERLWSNKLTRDMDDAYDRLSHFRCELVRRGVAAQPLYAGYCNQEFEQT
[1]
  NBD-GM3 produced in the overnight in vitro NBD-GM2 hydrolysis assay (liposomes plus rGM2AP), against Hex A at the same number of MUG units: the variant protein produces at least twice as much NBD-GM3 as Hex A
  detectable NBD-GM3 in the in vitro NBD-GM2 hydrolysis assay with human GM2AP: Only the assay containing Hex A or the variant protein produced detectable levels of NBD-GM3

B2: secreted variant β-hexosaminidase protein in conditioned media (enzyme)
chain: B1 chain
modifications: mannose-6-phosphate on Asn-linked oligosaccharides
[2]
  fold increase in intracellular MUGS activity of untransfected TSD fibroblasts grown in conditioned media: ~38 fold
  fold increase in intracellular MUGS activity of untransfected TSD fibroblasts grown in conditioned media containing 5 mM mannose-6-phosphate: ~10 fold

B3: Hex A (β-hexosaminidase A), purified from human placenta (protein)
chain 1: LWPWPQNFQTSDQRYVLYPNNFQFQYDVSSAAQPGCSVLDEAFQRYRDLLFGSGSWPRPYLTGKRHTLEKNVLVVSVVTPGCNQLPTLESVENYTLTINDDQCLLLSETVWGALRGLETFSQLVWKSAEGTFFINKTEIEDFPRFPHRGLLLDTSRHYLPLSSILDTLDVMAYNKLNVFHWHLVDDPSFPYESFTFPELMRKGSYNPVTHIYTAQDVKEVIEYARLRGIRVLAEFDTPGHTLSWGPGIPGLLTPCYSGSEPSGTFGPVNPSLNNTYEFMSTFFLEVSSVFPDFYLHLGGDEVDFTCWKSNPEIQDFMRKKGFGEDFKQLESFYIQTLLDIVSSYGKGYVVWQEVFDNKVKIQPDTIIQVWREDIPVNYMKELELVTKAGFRALLSAPWYLNRISYGPDWKDFYIVEPLAFEGTPEQKALVIGGEACMWGEYVDNTNLVPRLWPRAGAVAERLWSNKLTSDLTFAYERLSHFRCELLRRGVQAQPLNVGFCEQEFEQT
chain 2: TQVQQLLVSITLQSECDAFPNISSDESYTLLVKEPVAVLKANRVWGALRGLETFSQLVYQDSYGTFTINESTIIDSPRFSHRGILIDTSRHYLPVKIILKTLDAMAFNKFNVLHWHIVDDQSFPYQSITFPELSNKGSYSLSHVYTPNDVRMVIEYARLRGIRVLPEFDTPGHTLSWGKGQKDLLTPCYSRQNKLDSFGPINPTLNTTYSFLTTFFKEISEVFPDQFIHLGGDEVEFKCWESNPKIQDFMRQKGFGTDFKKLESFYIQKVLDIIATINKGSIVWQEVFDDKAKLAPGTIVEVWKDSAYPEELSRVTASGFPVILSAPWYLDLISYGQDWRKYYKVEPLDFGGTQKQKQLFIGGEACLWGEYVDATNLTPRLWPRASAVGERLWSSKDVRDMDDAYDRLTRHRCRMVERGIAAQPLYAGYCNHENM
[1]
  detectable NBD-GM3 in the in vitro NBD-GM2 hydrolysis assay with human GM2AP: Only the assay containing Hex A or the variant protein produced detectable levels of NBD-GM3

B4: Hex B (β-hexosaminidase B), purified from human placenta (protein)
chain: B3 chain 2
[1]
  detectable NBD-GM3 in the in vitro NBD-GM2 hydrolysis assay with human GM2AP (none for Hex B, the negative control): Only the assay containing Hex A or the variant protein produced detectable levels of NBD-GM3
